Measurements as given in patent publication US20240402174A1 (Takeda / Millennium, published 2024).

Legend:
Assay in all cases: multiplex microsphere immunoassay
[1] = target: T1, GI.2 VLP (norovirus Hu/GI.2/Jingzhou/2013401/CHN, UniProt Q04542 1-546)
T1 construct: also called GI.2 Jingzhou
T1 chain: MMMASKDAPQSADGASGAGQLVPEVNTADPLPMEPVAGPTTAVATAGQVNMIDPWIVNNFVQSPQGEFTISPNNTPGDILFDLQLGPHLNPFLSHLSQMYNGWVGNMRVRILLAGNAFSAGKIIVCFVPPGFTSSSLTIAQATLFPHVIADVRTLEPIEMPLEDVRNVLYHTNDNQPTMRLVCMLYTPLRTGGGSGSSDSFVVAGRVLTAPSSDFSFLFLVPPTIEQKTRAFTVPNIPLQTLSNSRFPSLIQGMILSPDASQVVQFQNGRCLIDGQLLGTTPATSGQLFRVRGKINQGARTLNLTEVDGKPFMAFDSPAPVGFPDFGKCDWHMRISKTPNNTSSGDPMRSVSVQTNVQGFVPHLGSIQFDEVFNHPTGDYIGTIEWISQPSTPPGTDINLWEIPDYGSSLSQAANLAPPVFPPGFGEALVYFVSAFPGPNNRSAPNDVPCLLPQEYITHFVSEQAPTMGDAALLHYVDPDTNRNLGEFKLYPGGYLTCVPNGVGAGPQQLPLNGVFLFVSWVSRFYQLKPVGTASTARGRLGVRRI

[2] = target: T2, GI.5 VLP (norovirus …)
T2 construct: also called GI.5 Siklos
T2 chain: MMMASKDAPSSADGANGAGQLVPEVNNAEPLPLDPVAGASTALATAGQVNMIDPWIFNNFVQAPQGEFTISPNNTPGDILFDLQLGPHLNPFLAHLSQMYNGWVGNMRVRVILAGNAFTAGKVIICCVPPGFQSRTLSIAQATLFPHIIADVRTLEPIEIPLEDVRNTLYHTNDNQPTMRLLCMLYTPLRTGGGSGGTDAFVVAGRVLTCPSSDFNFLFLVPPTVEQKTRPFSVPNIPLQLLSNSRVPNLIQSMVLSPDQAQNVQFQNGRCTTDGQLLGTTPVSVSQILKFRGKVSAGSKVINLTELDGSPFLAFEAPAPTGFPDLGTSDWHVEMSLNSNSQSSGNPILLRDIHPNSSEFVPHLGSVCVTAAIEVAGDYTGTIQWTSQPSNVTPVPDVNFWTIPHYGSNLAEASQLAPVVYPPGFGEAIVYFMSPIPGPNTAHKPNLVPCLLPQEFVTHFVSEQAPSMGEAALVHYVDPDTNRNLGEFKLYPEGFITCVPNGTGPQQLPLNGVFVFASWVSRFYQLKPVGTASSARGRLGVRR

[3] = target: T3, GI.4 VLP (norovirus Hu/GI.4/1643/2008/US)
T3 construct: also called GI.4 US
T3 chain: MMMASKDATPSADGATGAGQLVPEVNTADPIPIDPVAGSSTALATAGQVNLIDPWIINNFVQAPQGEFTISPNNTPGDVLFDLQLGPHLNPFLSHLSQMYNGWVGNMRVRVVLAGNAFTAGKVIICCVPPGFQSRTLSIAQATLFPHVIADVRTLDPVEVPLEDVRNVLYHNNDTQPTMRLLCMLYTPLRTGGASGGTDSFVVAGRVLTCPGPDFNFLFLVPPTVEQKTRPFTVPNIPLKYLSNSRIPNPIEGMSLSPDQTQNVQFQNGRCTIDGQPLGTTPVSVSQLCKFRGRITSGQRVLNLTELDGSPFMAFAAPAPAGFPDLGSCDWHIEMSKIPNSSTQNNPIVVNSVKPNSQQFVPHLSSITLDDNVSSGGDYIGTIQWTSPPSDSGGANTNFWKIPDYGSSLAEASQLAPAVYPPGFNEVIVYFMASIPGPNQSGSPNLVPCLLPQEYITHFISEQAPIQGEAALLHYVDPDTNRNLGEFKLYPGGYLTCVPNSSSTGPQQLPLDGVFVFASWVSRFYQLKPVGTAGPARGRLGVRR

[4] = target: T4, GI.1 VLP (norovirus Hu/GI.1/Norwalk/1968/US, UniProt Q83884 1-530)
T4 construct: also called GI.1 Norwalk; GI.I/Norwalk VLP
T4 sequence: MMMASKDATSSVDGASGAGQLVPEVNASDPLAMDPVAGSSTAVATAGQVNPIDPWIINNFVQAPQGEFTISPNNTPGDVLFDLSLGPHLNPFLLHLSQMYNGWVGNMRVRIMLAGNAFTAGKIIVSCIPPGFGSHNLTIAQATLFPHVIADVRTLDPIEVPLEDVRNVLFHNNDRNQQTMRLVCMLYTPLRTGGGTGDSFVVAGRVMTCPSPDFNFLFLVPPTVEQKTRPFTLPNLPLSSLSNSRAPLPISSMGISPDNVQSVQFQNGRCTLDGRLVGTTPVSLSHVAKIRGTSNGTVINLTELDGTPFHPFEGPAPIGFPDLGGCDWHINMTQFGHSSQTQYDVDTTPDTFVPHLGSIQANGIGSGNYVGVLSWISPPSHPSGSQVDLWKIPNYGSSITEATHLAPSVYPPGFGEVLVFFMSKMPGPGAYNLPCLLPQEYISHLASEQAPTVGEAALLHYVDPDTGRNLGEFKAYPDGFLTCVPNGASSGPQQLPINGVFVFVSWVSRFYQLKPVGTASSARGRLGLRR

[5] = target: T5, GI.3 VLP (norovirus Hu/GI.3/JKPG_883/SWE/2007)
T5 construct: also called GI.3 Sweden
T5 chain: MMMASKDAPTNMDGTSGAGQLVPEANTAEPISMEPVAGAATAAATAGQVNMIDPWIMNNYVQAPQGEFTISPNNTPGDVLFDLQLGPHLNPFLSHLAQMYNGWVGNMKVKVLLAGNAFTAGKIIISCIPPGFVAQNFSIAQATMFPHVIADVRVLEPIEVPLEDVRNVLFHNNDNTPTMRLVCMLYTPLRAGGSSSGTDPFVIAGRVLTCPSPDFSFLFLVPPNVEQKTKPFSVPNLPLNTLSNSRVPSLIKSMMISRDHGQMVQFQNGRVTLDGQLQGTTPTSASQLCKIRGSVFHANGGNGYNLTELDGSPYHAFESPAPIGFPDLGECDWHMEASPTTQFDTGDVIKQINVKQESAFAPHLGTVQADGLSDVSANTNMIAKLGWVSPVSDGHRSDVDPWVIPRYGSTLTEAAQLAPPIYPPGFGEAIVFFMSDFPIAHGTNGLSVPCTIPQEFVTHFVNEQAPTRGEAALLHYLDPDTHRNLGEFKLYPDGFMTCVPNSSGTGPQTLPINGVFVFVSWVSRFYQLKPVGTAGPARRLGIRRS

Measured: binding result

B1: human mAb 1431 (antibody, V domains shown)
VH: QVQLVQSGGGLVQPGGSLRLSCAASGFAFSNHGMHWVRQAPGKGLEWLSYISGSTGAIHYANSVKGRFTISRDNARNSLDLQMNSLGDEDTAVYYCARDGPRPDGTGYAGPSNDYWGQGTLVSVSS
VL: EIVLTQSPASLSLSPGERATLSCKASRSISIYLAWYQQKPGQAPRLLIYDASYRAIGIPARFSGSGSGTDFTLTISNLEPEDFAVYYCQHRSSWPALTFGGGTKVEI
notes: also called A1431
no binding: all assays above
